Data taken from US6670167.

T1: Biotin-Syntide-2
T1 chain: KAGAGPLARTLSVAGLPGK

T2: Syntide-2, synthetic substrate peptide PLARTLSVAGLPGKK
T2 chain: PLARTLSVAGLPGKK

T3: N-terminus acetylated Syntide-2
T3 chain: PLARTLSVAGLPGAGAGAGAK

B1: Kinase Domain Chk1 (1-289), C-terminally 6xHis-tagged (protein)
chain: MAVPFVEDWDLVGTLGEGAYGEVQLAVNRVTEEAVAVKIVDMKRAVDCPENIKKEICINKMLNHENVVKFYGHRREGNIQYLFLEYCSGGELFDRIEPDIGMPEPDAQRFFHQLMAGVVYLHGIGITHRDIKPENLLLDERDNLKISDFGLATVFRYNNRERLLNKMCGTLPYVAPELLKRREFHAEPVDVWSCGIVLTAMLAGELPWDQPSDSCQEYSDWKEKKTYLNPWKKIDSAPLALLHKILVENPSARITIPDIKKDRWYNKPLKKGAKRPRVTSGGVSESPSGHHHHHH
B2: Full Length Chk1 (amino acids 1-476 of SEQ ID NO. 2), preparation HA2-013 (protein)
chain: MAVPFVEDWDLVGTLGEGAYGEVQLAVNRVTEEAVAVKIVDMKRAVDCPENIKKEICINKMLNHENVVKFYGHRREGNIQYLFLEYCSGGELFDRIEPDIGMPEPDAQRFFHQLMAGVVYLHGIGITHRDIKPENLLLDERDNLKISDFGLATVFRYNNRERLLNKMCGTLPYVAPELLKRREFHAEPVDVWSCGIVLTAMLAGELPWDQPSDSCQEYSDWKEKKTYLNPWKKIDSAPLALLHKILVENPSARITIPDIKKDRWYNKPLKKGAKRPRVTSGGVSESPSGFSKHIQSNLDFSPVNSASSEENVKYSSSQPEPRTGLSLWDTSPSYIDKLVQGISFSQPTCPDHMLLNSGLLGTPGSSQNPWQRLVKRMTRFFTKLDADKSYQCLKETCEKLQYQWKKSCMNQVTISTTDRRNNKLIFKVNLLEMDDKILVDFRLSKGDGLEFKRHFLKIKGKLIDIVSSQKVWLPATHHHHHH

Columns and labels:
Biotin-Syntide-2 = molecular target: T1, Biotin-Syntide-2
[1] = molecular target: T2, Syntide-2, synthetic substrate peptide …
[2] = molecular target: T3, N-terminus acetylated Syntide-2

Row | Protein | Activity (Biotin-Syntide-2) [%] | Rate/min (/min (at 7.3 nM enzyme)) [1] | Activity [2] [%] | Activity [1] | Rate/min (/min (at 75 nM enzyme)) [1]
1 | B1 | 67 | 0.02 | 72 |  | 
2 | B2 |  |  |  | 1 (control) | 0.019
